Experimental data from the supplement of paper PMC10598134.
± gives the standard deviation.

Assay: collision cross section of modified peptide (TIMS, N2, iRT-aligned); higher = larger / more extended gas-phase ion
In short: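 Collision cross section values rest on the Mason-Schamp equation applied to calibrated, run-aligned mobility data from synthetic peptides. Mobility (1/K0) was calibrated with three reference ions and aligned per run to the median iRT peptide deviation, and 1–3 technical replicates of the most abundant feature per charge state were averaged. Data came from a timsTOF Pro/HT in dda-PASEF mode (nitrogen, ~2.4 mbar) after a 120-min nanoflow C18 gradient at 60 °C.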

[1] = charge state: 2, modification: Trimethyl (K)
[2] = charge state: 3, modification: Trimethyl (K)
[3] = charge state: 2, modification: hydroxyisobutyryl
[4] = charge state: 2, modification: Acetyl (K)
[5] = charge state: 2, modification: Butyryl
[6] = charge state: 2, modification: Formyl
[7] = charge state: 2, modification: Glutarylation
[8] = charge state: 2, modification: GlyGly (K)
[9] = charge state: 3, modification: GlyGly (K)
[10] = charge state: 2, modification: Malonyl
[11] = charge state: 2, modification: Methyl (K)
[12] = charge state: 3, modification: Methyl (K)
[13] = charge state: 2, modification: Succinyl
[14] = charge state: 2, modification: Citrullination (R)
[15] = charge state: 3, modification: Citrullination (R)
[16] = charge state: 3, modification: Methyl (R)
[17] = charge state: 2, modification: Methyl (R)
[18] = charge state: 2, modification: Hydroxyproline
[19] = charge state: 3, modification: Hydroxyproline

GFALVGVGSEASSKK [_GFALVGVGSEASSK(Trimethyl (K))K_]
collision cross section [1]: 444.52 ± 0.57 Å²
collision cross section [2]: 489.21 ± 1.8 Å²

GFALVGVGSEASSKK [_GFALVGVGSEASSK(hydroxyisobutyryl)K_]
collision cross section [3]: 419.49 ± 2.2 Å²
collision cross section (charge state: 3, modification: hydroxyisobutyryl): 502.54 ± 2.1 Å²

GFCFITYTDEEPVKK [_GFCFITYTDEEPVK(Acetyl (K))K_]
collision cross section [4]: 451.75 ± 3.1 Å²

GFCFITYTDEEPVKK [_GFCFITYTDEEPVK(Butyryl)K_]
collision cross section [5]: 458.8 ± 0.51 Å²

GFCFITYTDEEPVKK [_GFCFITYTDEEPVK(Formyl)K_]
collision cross section [6]: 450.51 Å²

GFCFITYTDEEPVKK [_GFCFITYTDEEPVK(Gluratylation)K_]
collision cross section [7]: 471.64 ± 1.5 Å²

GFCFITYTDEEPVKK [_GFCFITYTDEEPVK(GlyGly (K))K_]
collision cross section [8]: 487.35 ± 2.6 Å²
collision cross section [9]: 525.77 Å²

GFCFITYTDEEPVKK [_GFCFITYTDEEPVK(Malonyl)K_]
collision cross section [10]: 452.98 ± 0.65 Å²

GFCFITYTDEEPVKK [_GFCFITYTDEEPVK(Methyl (K))K_]
collision cross section [11]: 460.43 ± 0.33 Å²
collision cross section [12]: 513.09 ± 2.7 Å²

GFCFITYTDEEPVKK [_GFCFITYTDEEPVK(Succinyl)K_]
collision cross section [13]: 465.85 ± 1.1 Å²

GFCFITYTDEEPVKK [_GFCFITYTDEEPVK(Trimethyl (K))K_]
collision cross section [1]: 480.23 Å²

GFCFITYTDEEPVKK [_GFCFITYTDEEPVK(hydroxyisobutyryl)K_]
collision cross section [3]: 453.41 ± 0.8 Å²

GFGRGGAESHTFK [_GFGR(Citrullination (R))GGAESHTFK_]
collision cross section [14]: 413.94 ± 1 Å²
collision cross section [15]: 465.74 ± 2.2 Å²

GFGRGGAESHTFK [_GFGR(Methyl (R))GGAESHTFK_]
collision cross section [16]: 473.29 ± 3 Å²

GFLQPPPLRQPR [_GFLQPPPLR(Citrullination (R))QPR_]
collision cross section [14]: 391.62 ± 0.23 Å²
collision cross section [15]: 460.68 Å²

GFLQPPPLRQPR [_GFLQPPPLR(Methyl (R))QPR_]
collision cross section [17]: 399.75 Å²
collision cross section [16]: 450.22 ± 3.5 Å²

GFPGAPGLPGLK [_GFPGAP(Hydroxyproline)GLPGLK_]
collision cross section [18]: 358.41 ± 0.79 Å²

GFPGAPGLPGLKGHR [_GFP(Hydroxyproline)GAPGLPGLKGHR_]
collision cross section [19]: 478.5 ± 1.8 Å²

GFPGIQGRK [_GFP(Hydroxyproline)GIQGRK_]
collision cross section [18]: 339.07 Å²
collision cross section [19]: 407.07 Å²

GGFQNRGGGSGGGGNYR [_GGFQNR(Citrullination (R))GGGSGGGGNYR_]
collision cross section [14]: 403.21 ± 0.81 Å²
collision cross section [15]: 503.84 Å²

GGFQNRGGGSGGGGNYR [_GGFQNR(Methyl (R))GGGSGGGGNYR_]
collision cross section [16]: 475.78 ± 6.5 Å²

GGGDRGGFGPGK [_GGGDR(Citrullination (R))GGFGPGK_]
collision cross section [14]: 334.18 ± 0.75 Å²

GGGDRGGFGPGK [_GGGDR(Methyl (R))GGFGPGK_]
collision cross section [17]: 341.42 ± 0.86 Å²
collision cross section [16]: 412.06 ± 3 Å²

GGGFGAHGRGR [_GGGFGAHGR(Citrullination (R))GR_]
collision cross section [14]: 343.86 ± 0.28 Å²
collision cross section [15]: 412.59 ± 0.45 Å²

GGGFGAHGRGR [_GGGFGAHGR(Methyl (R))GR_]
collision cross section [17]: 351.67 ± 1.1 Å²
collision cross section [16]: 421.56 ± 5.3 Å²

GGGGGGGGGAPRGR [_GGGGGGGGGAPR(Citrullination (R))GR_]
collision cross section [14]: 333.41 ± 0.64 Å²
collision cross section [15]: 420.82 ± 2.9 Å²

GGGGGGGGGAPRGR [_GGGGGGGGGAPR(Methyl (R))GR_]
collision cross section [17]: 346.08 ± 2.1 Å²
collision cross section [16]: 427.42 ± 3.8 Å²

GGGGGRGGLHDFR [_GGGGGR(Citrullination (R))GGLHDFR_]
collision cross section [14]: 380.63 ± 2.7 Å²
collision cross section [15]: 438.48 ± 1.8 Å²

GGGGGRGGLHDFR [_GGGGGR(Methyl (R))GGLHDFR_]
collision cross section [16]: 457.91 ± 1.5 Å²

GGGYGGDRGGYGGDR [_GGGYGGDR(Citrullination (R))GGYGGDR_]
collision cross section [14]: 373.62 ± 7.7 Å²

GGGYGGDRGGYGGDR [_GGGYGGDR(Methyl (R))GGYGGDR_]
collision cross section [16]: 455.76 ± 1.3 Å²

GGNFGGRGGYGGGGGGSR [_GGNFGGR(Citrullination (R))GGYGGGGGGSR_]
collision cross section [14]: 392.17 ± 1 Å²
collision cross section [15]: 481.82 Å²

GGNFGGRGGYGGGGGGSR [_GGNFGGR(Methyl (R))GGYGGGGGGSR_]
collision cross section [16]: 462.43 ± 2.7 Å²

GGPGAPGAPGPK [_GGPGAP(Hydroxyproline)GAPGPK_]
collision cross section [18]: 326.77 ± 0.24 Å²

GGPGAPGAPGPKGESGDYK [_GGP(Hydroxyproline)GAPGAPGPKGESGDYK_]
collision cross section [18]: 431.65 ± 0.34 Å²
collision cross section [19]: 482.83 ± 2.3 Å²

GGPGGELPRGPQAGLGPR [_GGPGGELPR(Citrullination (R))GPQAGLGPR_]
collision cross section [14]: 413.18 ± 0.98 Å²
collision cross section [15]: 502.3 ± 0.77 Å²

GGPGGELPRGPQAGLGPR [_GGPGGELPR(Methyl (R))GPQAGLGPR_]
collision cross section [16]: 497.33 ± 2 Å²

GGPGSTLSFVGKR [_GGPGSTLSFVGK(Acetyl (K))R_]
collision cross section [4]: 381.14 ± 0.21 Å²
collision cross section (charge state: 3, modification: Acetyl (K)): 429.09 ± 1.1 Å²

GGPGSTLSFVGKR [_GGPGSTLSFVGK(Biotin)R_]
collision cross section (charge state: 2, modification: Biotin): 397.77 Å²

GGPGSTLSFVGKR [_GGPGSTLSFVGK(Butyryl)R_]
collision cross section [5]: 388.34 ± 1.3 Å²
collision cross section (charge state: 3, modification: Butyryl): 432.12 ± 3.2 Å²

GGPGSTLSFVGKR [_GGPGSTLSFVGK(Crotonyl)R_]
collision cross section (charge state: 2, modification: Crotonyl): 386.64 ± 0.27 Å²
collision cross section (charge state: 3, modification: Crotonyl): 427.61 ± 1.6 Å²

GGPGSTLSFVGKR [_GGPGSTLSFVGK(Dimethyl (K))R_]
collision cross section (charge state: 2, modification: Dimethyl (K)): 393.41 ± 0.79 Å²
collision cross section (charge state: 3, modification: Dimethyl (K)): 425.47 ± 2 Å²

GGPGSTLSFVGKR [_GGPGSTLSFVGK(Formyl)R_]
collision cross section [6]: 378.65 ± 0.9 Å²

GGPGSTLSFVGKR [_GGPGSTLSFVGK(Gluratylation)R_]
collision cross section [7]: 392.32 ± 0.52 Å²
collision cross section (charge state: 3, modification: Glutarylation): 441.96 ± 5.9 Å²

GGPGSTLSFVGKR [_GGPGSTLSFVGK(GlyGly (K))R_]
collision cross section [8]: 403.34 ± 0.36 Å²
collision cross section [9]: 451.29 ± 1.3 Å²

GGPGSTLSFVGKR [_GGPGSTLSFVGK(Malonyl)R_]
collision cross section [10]: 380.38 ± 0.0061 Å²

GGPGSTLSFVGKR [_GGPGSTLSFVGK(Methyl (K))R_]
collision cross section [11]: 391.3 ± 0.92 Å²
collision cross section [12]: 452.34 ± 5 Å²

GGPGSTLSFVGKR [_GGPGSTLSFVGK(Propionyl)R_]
collision cross section (charge state: 2, modification: Propionyl): 384.23 ± 0.44 Å²

GGPGSTLSFVGKR [_GGPGSTLSFVGK(Succinyl)R_]
collision cross section [13]: 387.5 ± 0.76 Å²
collision cross section (charge state: 3, modification: Succinyl): 434.26 Å²

GGPGSTLSFVGKR [_GGPGSTLSFVGK(Trimethyl (K))R_]
collision cross section [1]: 401.16 Å²
collision cross section [2]: 424.62 ± 2.4 Å²

GGPGSTLSFVGKR [_GGPGSTLSFVGK(hydroxyisobutyryl)R_]
collision cross section [3]: 388.57 ± 0.81 Å²

GGQGPPGPQGPIGYPGPR [_GGQGPPGPQGPIGYP(Hydroxyproline)GPR_]
collision cross section [18]: 420.55 ± 2.1 Å²
collision cross section [19]: 474.06 ± 0.36 Å²

GGRGTPGK [_GGRGTP(Hydroxyproline)GK_]
collision cross section [18]: 291.37 ± 3.4 Å²

GGSAGGRGFFR [_GGSAGGR(Citrullination (R))GFFR_]
collision cross section [14]: 340.82 ± 0.52 Å²

GGSAGGRGFFR [_GGSAGGR(Methyl (R))GFFR_]
collision cross section [17]: 365.18 ± 0.78 Å²
collision cross section [16]: 426.87 ± 4.1 Å²

GGSGGRGVSVSSAR [_GGSGGR(Citrullination (R))GVSVSSAR_]
collision cross section [14]: 361.74 ± 2.3 Å²
collision cross section [15]: 445.09 ± 2.9 Å²

GGSGGRGVSVSSAR [_GGSGGR(Methyl (R))GVSVSSAR_]
collision cross section [17]: 384.84 ± 7.6 Å²
collision cross section [16]: 464.84 ± 13 Å²

GHPGPPGPPGEQGLPGLAGK [_GHPGPPGPP(Hydroxyproline)GEQGLPGLAGK_]
collision cross section [18]: 440.72 ± 0.83 Å²
collision cross section [19]: 495.73 ± 18 Å²

GHYTIGK [_GHY(Nitro (Y))TIGK_]
collision cross section (charge state: 2, modification: Nitro (Y)): 323.5 ± 0.72 Å²

GHYTIGK [_GHY(Phospho (Y))TIGK_]
collision cross section (charge state: 2, modification: Phospho (Y)): 330.16 ± 0.068 Å²

GIGRGTVQALHATGAR [_GIGR(Citrullination (R))GTVQALHATGAR_]
collision cross section [14]: 453.22 ± 0.95 Å²
collision cross section [15]: 491.89 ± 1.9 Å²

GIGRGTVQALHATGAR [_GIGR(Methyl (R))GTVQALHATGAR_]
collision cross section [16]: 502.48 ± 1.9 Å²

GITGKPGPK [_GITGKP(Hydroxyproline)GPK_]
collision cross section [18]: 315.51 ± 1.9 Å²

GKLGVPGLPGYPGR [_GKLGVP(Hydroxyproline)GLPGYPGR_]
collision cross section [18]: 384.86 ± 0.79 Å²
collision cross section [19]: 481 ± 2.9 Å²

GLATFPSRGAK [_GLATFPSR(Citrullination (R))GAK_]
collision cross section [14]: 353.86 ± 0.53 Å²
